Measured values taken from patent US20220389066A1, “POLYPEPTIDES” (Affibody AB, priority 2019, published 2022).

Tests used:
[1] = biological target: T1, ZH 29 as periplasmic ABD fusion AQHDEALE-[ZH 29]-VDYV-[ABD]-YVPG (Streptococcus strain G148, UniProt P19909 254-299, limits assumed); assay: SPR (Biacore 2000) screening; periplasmic Z-ABD captured on anti-ABD antibody, 200 nM boxA(disulfide); 1:1 model; average of 3 measurements
T1 construct: domain: GA3
Protocol: (§1) Biacore screening of Z variants: The binding of Z variants to boxA(disulfide) was analyzed in an affinity screening using a Biacore 2000 instrument. A polyclonal goat anti-ABD antibody (goat anti-ABD) was immobilized on CM5 chip surfaces basically as described for other proteins in Example 3. For the kinetic screening, analytes were injected in two steps. First, a Z-ABD (where ABD is GA3) periplasmic extract was injected over the surface at 5 μl/min for 10 min. As a second step, 200 nM boxA(disulfide) was injected at 20 μl/min for 5 min, followed by 10 min of dissociation in running buffer HBS-EP. Glycine-HCl pH 2.0 (GE Healthcare, cat. no. BR100355) was used for regeneration of the antibody surfaces between the cycles. The temperature of the assay was 25° C. Before performing the kinetic analyses, the signal from 200 nM boxA(disulfide) injected over a reference surface containing goat anti-ABD but no Z-ABD sample was subtracted from the sensorgram of Z-ABD binding to boxA(disulfide). […] A periplasmic extract of ZH 01 was included in the screening analysis for comparison. […]

[2] = biological target: T2, ZH 04 as periplasmic ABD fusion AQHDEALE-[ZH 04]-VDYV-[ABD]-YVPG (Streptococcus strain G148, UniProt P19909 254-299, limits assumed); assay: SPR (Biacore 2000) screening; periplasmic Z-ABD captured on anti-ABD antibody, 200 nM boxA(disulfide); 1:1 model; average of 2 measurements
T2 construct: domain: GA3
Protocol: as §1

[3] = biological target: T3, ZH 07 as periplasmic ABD fusion AQHDEALE-[ZH 07]-VDYV-[ABD]-YVPG (Streptococcus strain G148, UniProt P19909 254-299, limits assumed); assay: SPR (Biacore 2000) screening; periplasmic Z-ABD captured on anti-ABD antibody, 200 nM boxA(disulfide); 1:1 model; average of 8 measurements
T3 construct: domain: GA3
Protocol: as §1

[4] = biological target: T4, ZH 06 as periplasmic ABD fusion AQHDEALE-[ZH 06]-VDYV-[ABD]-YVPG (Streptococcus strain G148, UniProt P19909 254-299, limits assumed); assay: SPR (Biacore 2000) screening; periplasmic Z-ABD captured on anti-ABD antibody, 200 nM boxA(disulfide); 1:1 model
T4 construct: domain: GA3
Protocol: (§2) Biacore screening of Z variants: The binding of Z variants to boxA(disulfide) was analyzed in an affinity screening using a Biacore 2000 instrument. A polyclonal goat anti-ABD antibody (goat anti-ABD) was immobilized on CM5 chip surfaces basically as described for other proteins in Example 3. For the kinetic screening, analytes were injected in two steps. First, a Z-ABD (where ABD is GA3) periplasmic extract was injected over the surface at 5 μl/min for 10 min. As a second step, 200 nM boxA(disulfide) was injected at 20 μl/min for 5 min, followed by 10 min of dissociation in running buffer HBS-EP. Glycine-HCl pH 2.0 (GE Healthcare, cat. no. BR100355) was used for regeneration of the antibody surfaces between the cycles. The temperature of the assay was 25° C. Before performing the kinetic analyses, the signal from 200 nM boxA(disulfide) injected over a reference surface containing goat anti-ABD but no Z-ABD sample was subtracted from the sensorgram of Z-ABD binding to boxA(disulfide). […] A periplasmic extract of ZH 01 was included in the screening analysis for comparison.
(§3) Biacore screening of Z variants: Seven new unique Z variants giving the highest response in ELISA-screen, ZH 04 (SEQ ID NO:4), ZH 05 (SEQ ID NO:5), ZH 06 (SEQ ID NO:6), ZH 07 (SEQ ID NO:7), ZH 08 (SEQ ID NO:8), ZH 09 (SEQ ID NO:9) and ZH 10 (SEQ ID NO:10) were submitted to a Biacore affinity screening together with ZH 01 (SEQ ID NO:1) and ZH 29 (SEQ ID NO:29; its binding motif is identical to that of ZH 01, but the sequence comprises scaffold amino acid variations V1A, D2E, Y5F, N52S and D53E). A single concentration of boxA(disulfide) was injected over each Z-ABD captured from periplasmic extracts on a sensor chip surface containing an anti-ABD antibody.

[5] = biological target: T5, ZH 10 as periplasmic ABD fusion AQHDEALE-[ZH 10]-VDYV-[ABD]-YVPG (Streptococcus strain G148, UniProt P19909 254-299, limits assumed); assay: as above
T5 construct: domain: GA3
Protocol: as §2, §3

[6] = biological target: T6, ZH 08 as periplasmic ABD fusion AQHDEALE-[ZH 08]-VDYV-[ABD]-YVPG (Streptococcus strain G148, UniProt P19909 254-299, limits assumed); assay: as above
T6 construct: domain: GA3
Protocol: as §2, §3

[7] = biological target: T7, ZH 05 as periplasmic ABD fusion AQHDEALE-[ZH 05]-VDYV-[ABD]-YVPG (Streptococcus strain G148, UniProt P19909 254-299, limits assumed); assay: as above
T7 construct: domain: GA3
Protocol: as §2, §3

[8] = biological target: T8, ZH 01 as periplasmic ABD fusion AQHDEALE-[ZH 01]-VDYV-[ABD]-YVPG (Streptococcus strain G148, UniProt P19909 254-299, limits assumed); assay: as above
T8 construct: domain: GA3
Protocol: as §2, §3

[9] = biological target: T9, ZH 09 as periplasmic ABD fusion AQHDEALE-[ZH 09]-VDYV-[ABD]-YVPG (Streptococcus strain G148, UniProt P19909 254-299, limits assumed); assay: as above
T9 construct: domain: GA3
Protocol: as §2, §3

B1: boxA(disulfide), disulfide linked form of A-box domain of HMGB1 (other)
chain: MGKGDPKKPRGKMSSYAFFVQTCREEHKKKHPDASVNFSEFSKKCSERWKTMSAKEKGKFEDMAKADKARYEREMKTYIPPKGETKKKF
modifications: disulfide C23-C45
notes: also called b-boxA(disulfide)
Q: How did the Kd [1] turn out when B1 was run?
A: ~36 nM

Q: And the Kd [2]?
A: ~54 nM

Q: And the Kd [3]?
A: ~44 nM

Q: And the Kd [4]?
A: ~71 nM

Q: What about the Kd [5] of the same binder?
A: ~47 nM

Q: And the Kd [6]?
A: ~31 nM

Q: And the Kd [7]?
A: ~54 nM

Q: And the Kd [8]?
A: ~4.7 nM

Q: And the Kd [9]?
A: ~91 nM
